From paper PMC3358306

Substrate: Nc1ncnc2c1ncn2[C@@H]1O[C@H](COP(=O)(O)OP(=O)(O)OP(=O)(O)O)[C@@H](O)[C@H]1O
Assay: purified protein
Format: biochemical, Archaeoglobus fulgidus
Conditions: Mg2+ ATP binding pocket

B1: afRio1 (Rio1 kinase) (Archaeoglobus fulgidus DSM 4304) (protein)
chain: MKDLKKIESYLDKLRIKEKDGEERKIYAEVLDGRTLKTLYKLSAKGYITAMGGVISTGKEANVFYADGVFDGKPVAMAVKIYRIETSEFDKMDEYLYGDERFDMRRISPKEKVFIWTEKEFRNLERAKEAGVSVPQPYTYMKNVLLMEFIGEDELPAPTLVELGRELKELDVEGIFNDVVENVKRLYQEAELVHADLSEYNIMYIDKVYFIDMGQAVTLRHPMAESYLERDVRNIIRFFSKYGVKADFEEMLKEVKGE
notes: full-length
Km: 0.4 µM
Vmax: 0.000156 µmol/min
